Source: the supplement of paper PMC5998384

Experiments:
[1] = test system: HeLa Kyoto; test: solubility change mitosis vs G1/S (difference of NP-40 vs SDS log2 ratios) (log2 ratio difference); higher = more soluble in mitosis
[2] = test system: HeLa Kyoto; test: melting temperature (median over replicates), in situ; higher = more thermally stable
[3] = test system: HeLa Kyoto; test: thermal stability score vs G1/S (z-score of summed log2 fold changes over temperatures); higher = more thermally stable than in G1/S
[4] = test system: HeLa Kyoto; test: solubility in G1/S (NP-40 vs SDS abundance) (log2 ratio); higher = more soluble; conditions: cell cycle stage: G1/S
[5] = cell cycle stage: early G1 (4.5 h after nocodazole release)
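For melting temperature (median over replicates), in situ in this document: HeLa Kyoto cells synchronized by double thymidine or nocodazole block, proteins quantified by TMT10plex mass spectrometry, three independent biological replicates.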
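For solubility change mitosis vs G1/S (difference of NP-40 vs SDS log2 ratios) in this document: synchronized HeLa Kyoto cells (double thymidine block for G1/S, nocodazole release for mitosis), protein amounts in NP-40 versus SDS lysates quantified by mass spectrometry, three biological replicates.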
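For solubility in G1/S (NP-40 vs SDS abundance) in this document: HeLa Kyoto cells arrested at G1/S by double thymidine block, proteins quantified by TMT10plex mass spectrometry in mild NP-40 versus SDS extracts, three biological replicates.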
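For thermal stability score vs G1/S (z-score of summed log2 fold changes over temperatures) in this document: synchronized HeLa Kyoto cells, proteins quantified by TMT10plex mass spectrometry, three biological replicates, mitosis taken 0.5 h after nocodazole release, G1/S directly after double thymidine block.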

| Substance | solubility change mitosis (log2) [1] | melting temperature ([2]; cell cycle stage: G1/S) | melting temperature ([2]; cell cycle stage: mitosis) | thermal stability score [3, 5] | thermal stability score ([3]; cell cycle stage: mitosis) | solubility in G1/S (log2) [4] |
| --- | --- | --- | --- | --- | --- | --- |
| MAASWRLGCDPRLLRYLVGFPGRRSVGLVKGALGWSVSRGANWRWFHSTQWLRGDPIKILMPSLSPTMEEGNIVKWLKKEGEAVSAGDALCEIETDKAVVTLDASDDGILAKIVVEEGSKNIRLGSLIGLIVEEGEDWKHVEIPKDVGPPPPVSKPSEPRPSPEPQISIPVKKEHIPGTLRFRLSPAARNILEKHSLDASQGTATGPRGIFTKEDALKLVQLKQTGKITESRPTPAPTATPTAPSPLQATAGPSYPRPVIPPVSTPGQPNAVGTFTEIPASNIRRVIAKRLTESKSTVPHAYATADCDLGAVLKVRQDLVKDDIKVSVNDFIIKAAAVTLKQMPDVNVSWDGEGPKQLPFIDISVAVATDKGLLTPIIKDAAAKGIQEIADSVKALSKKARDGKLLPEEYQGGSFSISNLGMFGIDEFTAVINPPQACILAVGRFRPVLKLTEDEEGNAKLQQRQLITVTMSSDSRVVDDELATRFLKSFKANLENPIRLA [PDHX] | -0.00638 | 53.5 °C | 52.9 °C | -1.5 | -1.54 | 0.248 |
| DMXL1 | -0.0423 | 51.4 °C | 50.9 °C | 0.592 | 1.02 | -0.236 |
| MAADSEPESEVFEITDFTTASEWERFISKVEEVLNDWKLIGNSLGKPLEKGIFTSGTWEEKSDEISFADFKFSVTHHYLVQESTDKEGKDELLEDVVPQSMQDLLGMNNDFPPRAHCLVRWYGLREFVVIAPAAHSDAVLSESKCNLLLSSVSIALGNTGCQVPLFVQIHHKWRRMYVGECQGPGVRTDFEMVHLRKVPNQYTHLSGLLDIFKSKIGCPLTPLPPVSIAIRFTYVLQDWQQYFWPQQPPDIDALVGGEVGGLEFGKLPFGACEDPISELHLATTWPHLTEGIIVDNDVYSDLDPIQAPHWSVRVRKAENPQCLLGDFVTEFFKICRRKESTDEILGRSAFEEEGKETADITHALSKLTEPASVPIHKLSVSNMVHTAKKKIRKHRGVEESPLNNDVLNTILLFLFPDAVSEKPLDGTTSTDNNNPPSESEDYNLYNQFKSAPSDSLTYKLALCLCMINFYHGGLKGVAHLWQEFVLEMRFRWENNFLIPGLASGPPDLRCCLLHQKLQMLNCCIERKKARDEGKKTSASDVTNIYPGDAGKAGDQLVPDNLKETDKEKGEVGKSWDSWSDSEEEFFECLSDTEELKGNGQESGKKGGPKEMANLRPEGRLYQHGKLTLLHNGEPLYIPVTQEPAPMTEDLLEEQSEVLAKLGTSAEGAHLRARMQSACLLSDMESFKAANPGCSLEDFVRWYSPRDYIEEEVIDEKGNVVLKGELSARMKIPSNMWVEAWETAKPIPARRQRRLFDDTREAEKVLHYLAIQKPADLARHLLPCVIHAAVLKVKEEESLENISSVKKIIKQIISHSSKVLHFPNPEDKKLEEIIHQITNVEALIARARSLKAKFGTEKCEQEEEKEDLERFVSCLLEQPEVLVTGAGRGHAGRIIHKLFVNAQRAAAMTPPEEELKRMGSPEERRQNSVSDFPPPAGREFILRTTVPRPAPYSKALPQRMYSVLTKEDFRLAGAFSSDTSFF [RAB3GAP1] | -0.113 | 48.9 °C | 49.4 °C | -0.345 | 0.335 | -0.0664 |
| MALLHSGRVLPGIAAAFHPGLAAAASARASSWWTHVEMGPPDPILGVTEAFKRDTNSKKMNLGVGAYRDDNGKPYVLPSVRKAEAQIAAKNLDKEYLPIGGLAEFCKASAELALGENSEVLKSGRFVTVQTISGTGALRIGASFLQRFFKFSRDVFLPKPTWGNHTPIFRDAGMQLQGYRYYDPKTCGFDFTGAVEDISKIPEQSVLLLHACAHNPTGVDPRPEQWKEIATVVKKRNLFAFFDMAYQGFASGDGDKDAWAVRHFIEQGINVCLCQSYAKNMGLYGERVGAFTMVCKDADEAKRVESQLKILIRPMYSNPPLNGARIAAAILNTPDLRKQWLQEVKVMADRIIGMRTQLVSNLKKEGSTHNWQHITDQIGMFCFTGLKPEQVERLIKEFSIYMTKDGRISVAGVTSSNVGYLAHAIHQVTK [GOT2] | -0.0966 | 59.4 °C | 58.8 °C | -1.18 | -2.25 | 0.165 |
